In patent US8084213, “Selection” (Domantis Limited):

Assays:
[1] = biological target: Vk(E5)-scArc-HA (Phage P22 / human Vk); assay: co-capture PCR; recovered also on beta-galactosidase; settings: tags: N-terminal Vk(E5) dAb fusion, C-terminal HA; chain copies: 2 scArc per operator (stated)
Method: (§1) The monoclonal high-affinity α-HA mAb 3F10 recognises the C-terminal HA tag, β-galactosidase and protein L can be expected to interact with the $V_\kappa$(E5) light chain domain, while BSA serves as the negative control. At the end of the incubation the coating solution is removed and the first blocking solution consisting of 150 µl of 10 ng/ml biotinylated BSA (Sigma) in PBS is added to the wells and incubated for 15 minutes. At the end of the incubation the wells are washed three times with 150 µl of PBS and blocked additionally for 30 min at room temperature with buffer C+.
25 µl S30 in vitro translation reactions (EcoPro T7, Novagen) are assembled according to the manufacturer's instructions and supplemented with 1.5 µl of 1.7 mM PCR-amplified template in 0.1 mg/ml RNA and 0.75 µl of 100 mM oxidized glutathione. Translation reactions are incubated at 23° C. for 4 hours and diluted with 150 µl of buffer C+ (10 mM Tris, 100 mM KCl, 0.05% Tween 20, 5 mM MgCl_2, 0.1 mM EDTA, 1% w/v BSA) before being applied in 50 µl aliquots to the pre-coated tubes cut from Strep Thermofast 96-well plates (Advanced Biotech) and allowed to bind for 30 min at room temperature. […]
(§2) The PCR amplification products are analysed by 1% agarose gel electrophoresis in TAE in the presence of ethidium bromide and imaged using GeneGeius Bio Imaging System (Syngene). […]

[2] = biological target: T1, scArc-HA (pIE3 series, single-chain Arc repressor dimer) (Phage P22); assay: co-capture of DNA on anti-HA 3F10 surface, PCR detection; settings: tags: C-terminal HA; chain copies: 2 scArc per operator (stated)
T1 chain: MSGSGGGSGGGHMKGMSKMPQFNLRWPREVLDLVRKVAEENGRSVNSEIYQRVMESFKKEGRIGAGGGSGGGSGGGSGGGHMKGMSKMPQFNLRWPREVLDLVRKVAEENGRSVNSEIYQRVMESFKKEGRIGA
Method: (§3) In a typical solution expression experiment 1 μl of 1.7 nM template in 0.2 mg/ml tRNA is added to 25 μl EcoPro T7 in vitro translation mix Novagen), supplemented with 0.75 μl of 100 mM oxidized glutathione (Sigma), and incubated at 25° C. for four hours. During the translation reaction the streptavidin-coated PCR tubes, cut from Strep Thermofast 96-well plates (Abgene), are first incubated at room temperature for three hours with 50 μl of at least 40 nM biotinylated target protein in PBS. The coating buffer is thereafter removed and any remaining free biotin-binding sites are blocked with a 15 min pulse of 50 μg/ml biotinylated BSA in PBS. The pre-coated wells are thereafter three times washed with PBS and then filled with 100 μl of binding buffer C+ (100 mM KCl, 20 mM Tris, 5 mM MgCl_2, 0.05% Tween 20, 0.05 mM EDTA, 1% BSA). Upon completion of the translation reaction the products are diluted in Buffer C+ and applied to the pre-coated and blocked PCR tubes, allowed to bind for 30 min at room temperature and washed 4 times with 150 μl of Buffer C+. […]

[3] = biological target: T2, scArc-HA (pIE2 series, single-chain Arc repressor dimer) (Phage P22); assay: co-capture of DNA on anti-HA 3F10 surface, PCR detection; buffer C+ 100 mM KCl, 5 mM MgCl2, room temp; settings: tags: C-terminal HA; chain copies: 2 scArc per operator (stated)
T2 chain: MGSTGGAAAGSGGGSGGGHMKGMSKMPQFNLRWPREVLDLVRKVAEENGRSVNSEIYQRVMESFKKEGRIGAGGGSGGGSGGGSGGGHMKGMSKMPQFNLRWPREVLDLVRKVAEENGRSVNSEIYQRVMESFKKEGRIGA
Method: as §3

[4] = biological target: scArc-Vk(E5)-HA (Phage P22 / human Vk); assay: co-capture PCR; settings: tags: C-terminal Vk(E5) dAb fusion, chain copies: 2 scArc per operator (stated)
Method: as §1, with “Tubes from Strep Thermofast 96-well plates are coated by applying 2 µl of 0.05 mg/ml biotinylated rat anti-HA mAb (clone 3F10, Roche), 0.2 µl of 0.5 mg/ml biotinylated protein L (Pierce), 1 µl of biotinylated 1 mg/ml β-galactosidase or 0.1 µl of 5 mg/ml biotinylated BSA (Sigma) respectively in 50 µl aliquots of PBS and incubating for 3 hours at room temperature. The” for “The”
25 µl S30 in vitro translation reactions (EcoPro T7, Novagen) are assembled according to the manufacturer's instructions and supplemented with 1.5 µl of 1.7 mM PCR-amplified template in 0.1 mg/ml RNA and 0.75 µl of 100 mM oxidized glutathione. […]
as §2

Measured: binding result

B1: Arc operator, one copy, on linear genetic element (dsDNA)
DNA 1: ATGATAGAAGCACTCTACTAT
DNA 2: ATAGTAGAGTGCTTCTATCAT
binds: [1] | [2] | [3] | [4]
